This test addresses synthetic fragment of the mouse TLR-2 extracellular domain (mouse).

The text below walks through data of patent US20060246084A1.

B1: LcrV193-210 synthetic peptide (peptide)
peptide: LMDKNLYGYTDEEIFKAS
modifications: not checked
As to B1, the Kd came to 350 pM.
